Measured values taken from US11298427B2, “Prodrugs comprising a pyroglutamate linker” (Ascendis Pharma A/S, priority 2015, dated 2022).
Like-named read-outs stand apart in the source and are kept apart here.

Assay: hydrolysis / release kinetics of linker-peptide conjugates in buffer at 37° C., LCMS analysis, half-life by curve fitting
Format: physicochemical
Method: The hydrolysis kinetics of PEGylated linker-peptide conjugate 8 were studied at pH 7.4, 37° C. and pH 8.9, 37° C. Therefore, the starting material 8 was dissolved in two different buffers (60 mM phosphate, pH 7.4 and 100 mM borate pH 8.9, respectively). The resulting solutions were incubated in a water bath at 37° C. At given points in time samples were withdrawn, quenched and analyzed by LCMS. Curve fitting software was applied to determine the corresponding half-life of the release.
Release kinetics were setup and analyzed according to example 5 with additional buffers at 37° C.
Release kinetics were setup and analyzed according to example 5 with changed buffers.

[1] = sodium phosphate buffer, pH 7.4, 100 mM sodium phosphate, pH 7.4, 37° C., read-out: half-life (converted)

With COCCOCCOCCOCCOCCOCCOCCOCCNC(=O)[C@@H](N)CCC(=O)NCCCC[C@H](NC(=O)[C@H](CO)NC(C)=O)C(=O)N[C@@H](Cc1ccc(O)cc1)C(=O)O [Compound 8] the half-life (borate buffer, pH 8.9, 100 mM borate, pH 8.9, 37° C., read-out: half-life of release of Ac-Ser-Lys-Tyr-OH (9) (converted)) was 220 days and the half-life (phosphate buffer, pH 7.4, 60 mM phosphate, pH 7.4, 37° C., read-out: half-life of release of Ac-Ser-Lys-Tyr-OH (9) (converted)) was 56 days.
For COCCOCCOCCOCCOCCOCCOCCOCCN(C)C(=O)[C@@H](N)CCC(=O)NCCCC[C@H](NC(=O)[C@H](CO)NC(C)=O)C(=O)N[C@@H](Cc1ccc(O)cc1)C(=O)O [Compound 25a], the half-life [1] was 26 days.
Work on CN[C@@H](CCC(=O)NCCCC[C@H](NC(=O)[C@H](CO)NC(C)=O)C(=O)N[C@@H](Cc1ccc(O)cc1)C(=O)O)C(=O)NCCOCCOCCOCCOCCOCCOCCOCCOC [Compound 25b] yielded a half-life [1] of 164 days.
CN[C@@H](CCC(=O)NCCCC[C@H](NC(=O)[C@H](CO)NC(C)=O)C(=O)N[C@@H](Cc1ccc(O)cc1)C(=O)O)C(=O)N(C)CCOCCOCCOCCOCCOCCOCCOCCOC [Compound 25c] showed a half-life (HEPES buffer, pH 7.4, 60 mM HEPES, 130 mM NaCl, pH 7.4, 37° C., read-out: half-life (converted)) of 149 days, a half-life (sodium borate buffer, pH 9, 100 mM sodium borate, pH 9.0, 37° C., read-out: half-life (converted)) of 92 days and a half-life (sodium citrate buffer, pH 4, 100 mM sodium citrate, pH 4.0, 37° C., read-out: half-life (converted)) of 129 days. It also gave a half-life (sodium citrate buffer, pH 5.5, 100 mM sodium citrate, pH 5.5, 37° C., read-out: half-life (converted)) of 207 days, a half-life (sodium citrate buffer, pH 6.5, 30 mM sodium citrate, pH 6.5, 37° C., read-out: half-life (converted)) of 339 days and a half-life (sodium citrate buffer, pH 6.5, 100 mM sodium citrate, pH 6.5, 37° C., read-out: half-life (converted)) of 336 days. For the same compound, the half-life (sodium phosphate buffer, pH 6.5, 100 mM sodium phosphate, pH 6.5, 37° C., read-out: half-life (converted)) was 35 days, the half-life (sodium phosphate buffer, pH 7.4, 30 mM sodium phosphate, pH 7.4, 37° C., read-out: half-life (converted)) was 55 days and the half-life (sodium phosphate buffer, pH 7.4, 60 mM sodium phosphate, pH 7.4, 37° C., read-out: half-life (converted)) was 36 days. For the same compound, the half-life [1] was 55 days and the half-life (sodium phosphate buffer, pH 7.4, 200 mM sodium phosphate, pH 7.4, 37° C., read-out: half-life (converted)) was 17 days.
